Patent US10233249B2, “Antibodies and methods for treating estrogen receptor-associated diseases” (BEIJING SHENOGEN PHARMA GROUP LTD., priority 2013, dated 2019)

Key:
[1] = molecular target: T1, stable 3T3 cell lines induced to express human ER-α36 protein (Homo sapiens, UniProt P03372, I452L); experiment: FACS analysis of binding to inducible 3T3 cell lines; conditions: mouse IgG2b isotype control
T1 construct: expressed in transfected cells
T1 sequence (P03372 1-310 isoform P03372-4 I279L): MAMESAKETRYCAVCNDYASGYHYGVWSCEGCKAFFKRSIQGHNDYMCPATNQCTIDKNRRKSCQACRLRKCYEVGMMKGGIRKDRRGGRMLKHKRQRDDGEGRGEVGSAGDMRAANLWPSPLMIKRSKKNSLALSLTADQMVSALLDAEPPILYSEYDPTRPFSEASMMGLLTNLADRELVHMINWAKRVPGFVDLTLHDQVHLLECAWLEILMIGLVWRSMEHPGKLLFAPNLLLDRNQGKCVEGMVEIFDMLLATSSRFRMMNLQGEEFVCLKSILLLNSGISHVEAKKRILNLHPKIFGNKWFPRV

K562 cells = experiment: Internalization analysis by surface fluorescence quenching (FACS); format: cell-based, human; conditions: 37° C., peak by 24 hours
Protocol: The % internalization=(Qn-Qo)/(Nn-Qo); Qn=MFI (Mean Fluorescence Intensity) for a sample at a specific time point, after quench; Nn=MFI for a sample taken at a specific time point, no quench; Qo=MFI for sample incubated only on ice at 0 hour, after quench.
As the development of antibody drug conjugate relies on the carrier antibody to be internalized to deliver the chemotherapeutic agent into the tumor cells, the ability of SNGmB1 being internalized by K-562 cells was also assessed.
K562 cells were first cultured in normal IMDM medium for 24 hours. On the second day, the cells are collected by centrifugation and washed once with warm PBS, followed by resuspending into culture medium with IMDM without phenol red (Gibco) supplemented with 2.5% charcoal-stripped FBS (Gibo) without phenol red. After culturing for 48 hours, the cells were collected and centrifuged for 5 minutes at 1000 rpm. The cells were then incubated with AlexaFluro488-labelled anti-ER-α36 antibody SNGmB1 37° C. for different time (1, 2, 4, 6, 24 hours) to allow internalization to occur. The internalization was stopped by putting the cells on ice. Antibody internalization analysis of SNGmB1 by K562 cells was performed by surface fluorescence quenching and measured by MFI as detected by FACS. An anti-anti-AlexaFluro488 antibody was used to quench the AlexaFluro488-labeled SNGmB1 antibody bound on the K562 cell surface.

[2] = molecular target: T2, biotinylated GV27 peptide (ER-α36) (Homo sapiens, UniProt P03372); experiment: Competition ELISA; format: binding
T2 sequence (P03372 284-310 isoform P03372-4 limits assumed): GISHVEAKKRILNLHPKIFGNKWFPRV
Protocol: The antigen (biotinylated GV27 peptide) was added along with different amount of the competing mouse antibody, the ELISA plates were then allowed to incubate for equilibrium before wash. Streptavidin-HRP (Sigma, S2438, 1:5000) and TMB substrate (Biopanda, China) were added and OD450 was measured on a plate reader. IgG were tested in parallel as control antibody.

[3] = molecular target: T3, ER-α36 protein in human tumor tissues (Homo sapiens, UniProt P03372); experiment: Immunohistochemistry (IHC) of human tissue samples; conditions: paraffin tissue of breast cancer patients
T3 construct: from tissue; host or cells: paraffin sections of breast cancer patients' tissue
T3 sequence (P03372 1-310 isoform P03372-4): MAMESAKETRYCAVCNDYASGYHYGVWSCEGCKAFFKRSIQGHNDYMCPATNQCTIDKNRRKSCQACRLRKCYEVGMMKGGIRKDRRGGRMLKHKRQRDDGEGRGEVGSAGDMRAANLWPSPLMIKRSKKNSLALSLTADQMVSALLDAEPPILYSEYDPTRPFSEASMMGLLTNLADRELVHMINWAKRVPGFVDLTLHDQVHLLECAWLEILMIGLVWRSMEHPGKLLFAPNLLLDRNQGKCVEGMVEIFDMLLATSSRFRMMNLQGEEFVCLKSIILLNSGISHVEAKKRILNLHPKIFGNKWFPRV
Protocol: Immunohistochemistry (IHC) assay was used to evaluate the ability of utilizing a specific antibody like SNGmB1 to better detect the presence of ER-α36 in human tissue samples. 4 μm thick paraffin tissue blocks of breast cancer patients were de-paraffinized by immersing in the xylene for twenty minutes twice, followed by rehydrating sequentially in 99%, 90%, 85%, 75%, 50% ethanol for 5 minutes each. The tissue sections were then washed three times with PBS. Antigen retrieval was then performed by heating in 95° C. citrate (pH 6.0) buffer for 15 minutes in microwave. Once cooled to room temperature, the sections were then washed with PBS three times, and incubated with 3% hydrogen peroxide for 20 minutes at room temperature, followed by washing with PBS. […] Upon washing with PBS five times, pre-diluted secondary antibody (ZSGB-Bio, Cat# PV-6000) was added and incubated for 20 minutes at room temperature. The sections were then washed with PBS and incubated with DAB solution for 2-5 minutes, followed by rinsing in distilled water for 5-10 minutes. The sections were then counter-stained in hematoxylin (ZSGB-BIO, Cat# ZLI-9609), followed by rinsing sequentially in 50%, 75%, 85%, 90% and 99% A ethanol to dehydrate. The sections were then cleared in xylene and sealed with neutral balsam before evaluated with microscope.

[4] = system: 4T1-ER-α36 positive cells; experiment: 4T1-ER-α36 lung tumor metastasis model; format: in vivo, nude mice
Protocol: FACS-sorted 4T1-ER-α36 positive cells (ATCC) (5*10^4) were injected in the nude mice via tail vein. Average 20 mg/kg body SNGmB1 or control IgG (20 mg/kg body weight) was administered by tail vein injection every 3 or 4 days for 18 days, and tamoxifen (1 mg/kg body weight) was intragastric administrated synchronously. […] Representative immunohistochemical images showing ALDH1 in lung metastatic foci with tamoxifen administrated tumor-bearing nude mice respectively after control IgG and SNGmB1 antibody treatment. Hematoxylin was used for counterstaining. Seen from FIG. 26a and FIG. 26b, it is illustrated that ALDH1 is decreased after SNGmB1 injection. scale bars 50 μm.

ER-α36 = molecular target: T4, ER-α36 (Homo sapiens, UniProt P03372); experiment: ELISA binding specificity of SNGmB1; parameters: made in house; host or cells: E. coli BL21 (DE3); conditions: plate coated at 1 μg/ml, antibody 0.004-10 μg/ml
T4 sequence (P03372 284-310 isoform P03372-4): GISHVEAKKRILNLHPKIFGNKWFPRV
Protocol: The binding specificity of SNGmB1 was assessed using ELISA assay. Five different proteins were used to coat the assay plate at 1 μg/ml. After extensive blocking, the SNGmB1 antibody of different concentrations (10, 2, 0.4, 0.08 and 0.016, 0.004 μg/ml) was added to the assay plate and incubated for 1.5 hours, followed by detection of complex formation using HRP (horse radish peroxidase) labeled anti-mouse IgG Fc (Invitrogen). An example of the data was shown below in FIG. 3. […] The key epitope residues in ER-α36 F domain for SNGmB1 binding have been mapped using both PepScan and Alanine Scan (see Example 5).

- binding to 3T3 cell line induced to express human ER-α36 (FACS) [1]: specifically bound
- competition with SNGmB1 antibody for binding to GV27 peptide / ER-α36 [2]: compete against SNGmB1 antibody
- binding to 27-amino acid peptide derived from the F domain of ER-α36 ("peptide") (ER-α36): bind to
B1: SNGmB1: mouse monoclonal anti-ER-α36 antibody (mIgG2b), light chain SEQ ID NO: 16, heavy chain SEQ ID NO: 18 (antibody, listed as Mus musculus)
heavy: QAYLQQSGAELVRPGASVKMSCKASGYTFTSHNMHWIKQTPRQGLEWIGAIHPVNGDTAYNQKFKGKATLTVDKSSSTAYLQLSSLTSEESAVYFCAREGYGSVDYWGQGTTLTVSSAKTTPPSVYPLAPGCGDTTGSSVTLGCLVKGYFPESVTVTWNSGSLSSSVHTFPALLQSGLYTMSSSVTVPSSTWPSQTVTCSVAHPASSTTVDKKLEPSGPISTINPCPPCKECHKCPAPNLEGGPSVFIFPPNIKDVLMISLTPKVTCVVVDVSEDDPDVQISWFVNNVEVHTAQTQTHREDYNSTIRVVSTLPIQHQDWMSGKEFKCKVNNKDLPSPIERTISKIKGLVRAPQVYILPPPAEQLSRKDVSLTCLVVGFNPGDISVEWTSNGHTEENYKDTAPVLDSDGSYFIYSKLNMKTSKWEKTDSFSCNVRHEGLKNYYLKKTISRSPGK
light: ETTVTQSPASLSMTIGEKVTIRCITSTDIDDDMNWYRKKPGQPPKLLISEGNTLRPGVPSRFSSSGYGTDFVFTIENMLSEDVADYYCLQSDNLPLTFGAGTKLELKRADAAPTVSIFPPSSEQLTSGGASVVCFLNNFYPKDINVKWKIDGSERQNGVLNSWTDQDSKDSTYSMSSTLTLTKDEYERHNSYTCEATHKTSTSPIVKSFNRNEC
- percentage of internalized antibody (of the bound antibody) (K562 cells): ~75%
- detection of ER-α36 protein expression in human tumor tissues [3]: detected both membrane bound and cytoplasmic expression
- metastasis of lung tumor ([4]; nude mice, 20 mg/kg by tail vein every 3 or 4 days for 18 days, with tamoxifen 1 mg/kg): prevents the metastasis of lung tumor
- ALDH1 in lung metastatic foci (immunohistochemistry) ([4]; tamoxifen administrated tumor-bearing nude mice, versus control IgG): decreased
